Legend:
Test in all cases: cell-based or functional assay
[1] = biological target: HIV-1 92BR020 envelope glycoprotein (Env) on pseudovirus (HIV-1)
[2] = biological target: HIV-1 92UG024 envelope glycoprotein (Env) on pseudovirus (HIV-1)
[3] = biological target: HIV-1 94UG103 envelope glycoprotein (Env) on pseudovirus (HIV-1)
[4] = biological target: HIV-1 Env of isolate 93MW959 (clade C) (HIV-1 isolate 93MW959)
[5] = biological target: HIV-1 Env of isolate 98IN022 (clade C) (HIV-1 isolate 98IN022)
[6] = biological target: HIV-1 Env of isolate LAVI_C22 (HIV-1)
[7] = biological target: HIV-1 Env of isolate MGRM-D-003 (clade D pseudovirus) (HIV-1)
[8] = biological target: HIV-1 Env of isolate MGRM-D-014 (clade D pseudovirus) (HIV-1)
[9] = biological target: HIV-1 Env of isolate MGRM-D-021 (clade D pseudovirus) (HIV-1)
[10] = biological target: HIV-1 Env of isolate NL43, clade B, on pseudovirus (HIV-1)
[11] = biological target: HIV-1 Env of pseudovirus MGRM-AE-005 (clade CRF01_AE) (HIV-1)
[12] = biological target: HIV-1 Env of pseudovirus MGRM-F1-010 (HIV-1)
[13] = biological target: HIV-1 Env of pseudovirus MGRM-F1-016 (HIV-1)
[14] = biological target: HIV-1 Env of pseudovirus MGRM-G-001 (clade G) (HIV-1)
[15] = biological target: HIV-1 Env of pseudovirus MGRM-G-028 (HIV-1, clade G isolate MGRM-G-028)
[16] = biological target: HIV-1 IAVI-C3 envelope glycoprotein (Env) on pseudovirus (HIV-1)
[17] = biological target: HIV-1 envelope glycoprotein (Env) of isolate 93UG077, clade A (HIV-1)
[18] = biological target: HIV-1 envelope glycoprotein (Env) of isolate MGRM-A-013, clade A (HIV-1)
[19] = biological target: aMLV envelope protein on pseudovirus (negative control)

b12 (antibody)
IC50, pseudovirus neutralization [1]: 27.5 µg/mL
IC50, pseudovirus neutralization [2]: 49.1 µg/mL
IC50, pseudovirus neutralization [3]: 3.54 µg/mL
IC50 (µg/ml), pseudovirus neutralization [4]: > 50 µg/mL
IC50 (µg/ml), pseudovirus neutralization [5]: 0.42 µg/mL
IC50 [6]: 7.64 µg/mL
IC50 (µg/ml), pseudovirus neutralization [7]: > 50 µg/mL
IC50 (µg/ml), pseudovirus neutralization [8]: > 50 µg/mL
IC50 (µg/ml), pseudovirus neutralization [9]: 5.23 µg/mL
IC50 (µg/ml), pseudovirus neutralization [10]: 0.17 µg/mL
IC50 [11]: 0.63 µg/mL
IC50 (µg/ml), pseudovirus neutralization [12]: > 50 µg/mL
IC50 (µg/ml), pseudovirus neutralization [13]: > 50 µg/mL
IC50 [14]: > 50 µg/mL
IC50 (µg/ml), pseudovirus neutralization [15]: > 50 µg/mL
IC50, pseudovirus neutralization [16]: 5 µg/mL
IC50 (µg/ml), pseudovirus neutralization [17]: 47 µg/mL
IC50 (µg/ml), pseudovirus neutralization [18]: 7.04 µg/mL
IC90 (pseudovirus neutralization) [19]: > 50 µg/mL

2F5 (antibody)
IC50, pseudovirus neutralization [1]: > 50 µg/mL
IC50, pseudovirus neutralization [2]: 1.27 µg/mL
IC50, pseudovirus neutralization [3]: 3.79 µg/mL
IC50 (µg/ml), pseudovirus neutralization [4]: > 50 µg/mL
IC50 (µg/ml), pseudovirus neutralization [5]: > 50 µg/mL
IC50 [6]: > 50 µg/mL
IC50 (µg/ml), pseudovirus neutralization [7]: > 50 µg/mL
IC50 (µg/ml), pseudovirus neutralization [8]: 2.22 µg/mL
IC50 (µg/ml), pseudovirus neutralization [9]: > 50 µg/mL
IC50 (µg/ml), pseudovirus neutralization [10]: 2.02 µg/mL
IC50 [11]: 0.14 µg/mL
IC50 (µg/ml), pseudovirus neutralization [12]: 14.6 µg/mL
IC50 (µg/ml), pseudovirus neutralization [13]: 21.5 µg/mL
IC50 [14]: 4.1 µg/mL
IC50 (µg/ml), pseudovirus neutralization [15]: 2.24 µg/mL
IC50, pseudovirus neutralization [16]: > 50 µg/mL
IC50 (µg/ml), pseudovirus neutralization [17]: 3.3 µg/mL
IC50 (µg/ml), pseudovirus neutralization [18]: 0.66 µg/mL
IC90 (pseudovirus neutralization) [19]: > 50 µg/mL

4E10 (antibody)
IC50, pseudovirus neutralization [1]: 41.4 µg/mL
IC50, pseudovirus neutralization [2]: 1.32 µg/mL
IC50, pseudovirus neutralization [3]: 9.7 µg/mL
IC50 (µg/ml), pseudovirus neutralization [4]: 4.55 µg/mL
IC50 (µg/ml), pseudovirus neutralization [5]: 0.53 µg/mL
IC50 [6]: 2.02 µg/mL
IC50 (µg/ml), pseudovirus neutralization [7]: 2.49 µg/mL
IC50 (µg/ml), pseudovirus neutralization [8]: 3.24 µg/mL
IC50 (µg/ml), pseudovirus neutralization [9]: 13.3 µg/mL
IC50 (µg/ml), pseudovirus neutralization [10]: 4.67 µg/mL
IC50 [11]: 0.47 µg/mL
IC50 (µg/ml), pseudovirus neutralization [12]: 3.69 µg/mL
IC50 (µg/ml), pseudovirus neutralization [13]: 7.61 µg/mL
IC50 [14]: 2.04 µg/mL
IC50 (µg/ml), pseudovirus neutralization [15]: 6.32 µg/mL
IC50, pseudovirus neutralization [16]: 5 µg/mL
IC50 (µg/ml), pseudovirus neutralization [17]: 10.6 µg/mL
IC50 (µg/ml), pseudovirus neutralization [18]: 1.46 µg/mL
IC90 (pseudovirus neutralization) [19]: > 50 µg/mL

1495_C14 (PGC14) (antibody)
IC50, pseudovirus neutralization [1]: 0.637 µg/mL
IC50, pseudovirus neutralization [2]: > 50 µg/mL
IC50, pseudovirus neutralization [3]: > 50 µg/mL
IC50 (µg/ml), pseudovirus neutralization [4]: > 50 µg/mL
IC50 (µg/ml), pseudovirus neutralization [5]: 9 µg/mL
IC50 [6]: 25 µg/mL
IC50 (µg/ml), pseudovirus neutralization [7]: > 50 µg/mL
IC50 (µg/ml), pseudovirus neutralization [8]: 48 µg/mL
IC50 (µg/ml), pseudovirus neutralization [9]: > 50 µg/mL
IC50 (µg/ml), pseudovirus neutralization [10]: 40 µg/mL
IC50 [11]: > 50 µg/mL
IC50 (µg/ml), pseudovirus neutralization [12]: > 50 µg/mL
IC50 (µg/ml), pseudovirus neutralization [13]: > 50 µg/mL
IC50 [14]: > 50 µg/mL
IC50 (µg/ml), pseudovirus neutralization [15]: > 50 µg/mL
IC50, pseudovirus neutralization [16]: > 50 µg/mL
IC50 (µg/ml), pseudovirus neutralization [17]: > 50 µg/mL
IC50 (µg/ml), pseudovirus neutralization [18]: > 50 µg/mL

Reference: US20250320281A1
